Where two headings read alike, the source gives them in different places.

Results on one molecule are retold here after US20250199010A1 (ALAMAR BIOSCIENCES, published 2025).

In assay [1] the target is 7D12-(GGGS)4-9G8 (llama). The assay can be described thus: SPR (Biacore), 25 °C. For orientation: SPR reads the build-up and loss of mass on a sensor chip optically.
Assay [2] deals with 7D12-ITA-(E4K4)4-IGG-[-AA]9G8 (llama). The assay can be described thus: SPR, murine EGFR-Fc.
Assay [3] concerns the target 7D12-(E4K4)5-VSG-[-AA]9G8. The assay can be described thus: SPR, murine EGFR-Fc.
Assay [4] has as its target 7D12-FAS-(AP)11-VGG-[-AA]9G8 (llama). Briefly: SPR, murine EGFR-Fc.
The target of assay [5] is 7D12-(GGGS)4-9G8 (llama). The assay can be described thus: SPR (Biacore), 25 °C. This is another data set of the same source.
The target of the next assay is 9G8-GS-7D12 (llama). The assay can be described thus: SPR (Biacore), 25 °C.

B1: Mouse EGFR-Fc (Fc fusion, UniProt Q01279 25-647, looked up)
chain: LEEKKVCQGTSNRLTQLGTFEDHFLSLQRMYNNCEVVLGNLEITYVQRNYDLSFLKTIQEVAGYVLIALNTVERIPLENLQIIRGNALYENTYALAILSNYGTNRTGLRELPMRNLQEILIGAVRFSNNPILCNMDTIQWRDIVQNVFMSNMSMDLQSHPSSCPKCDPSCPNGSCWGGGEENCQKLTKIICAQQCSHRCRGRSPSDCCHNQCAAGCTGPRESDCLVCQKFQDEATCKDTCPPLMLYNPTTYQMDVNPEGKYSFGATCVKKCPRNYVVTDHGSCVRACGPDYYEVEEDGIRKCKKCDGPCRKVCNGIGIGEFKDTLSINATNIKHFKYCTAISGDLHILPVAFKGDSFTRTPPLDPRELEILKTVKEITGFLLIQAWPDNWTDLHAFENLEIIRGRTKQHGQFSLAVVGLNITSLGLRSLKEISDGDVIISGNRNLCYANTINWKKLFGTPNQKTKIMNNRAEKDCKAVNHVCNPLCSSEGCWGPEPRDCVSCQNVSRGRECVEKCNILEGEPREFVENSECIQCHPECLPQAMNITCTGRGPDNCIQCAHYIDGPHCVKTCPAGIMGENNTLVWKYADANNVCHLCHANCTYGCAGPGLQGCEVWPSGPKIPS
notes: also called muEGFR; murine EGFR-Fc; not shown: Fc part, not described
For orientation: Kd means the equilibrium constant for the complex coming apart. On to B1, for which the Kd stood at 160 nM in the assay with 7D12-(GGGS)4-9G8 [1]; 0.7 nM in assay [2]; 2.6 nM in assay [3]; 0.6 nM in assay [4]; 160 nM with 7D12-(GGGS)4-9G8 [5]; 58 nM with 9G8-GS-7D12.
